± gives the half width of the 95% confidence interval.
How the values were obtained:
[1] = folding stability dG unfold from chymotrypsin proteolysis; higher = more stable
Procedure, shortened: (§1)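 K50 was inferred by Bayesian fitting of sequencing counts obtained after protease digestion of designed mini-proteins. Unfolding free energy was derived by comparison with a sequence-predicted unfolded-state K50 and a shared folded-state K50, for each protease or both combined. The mini-proteins were under 80 residues, had no cysteine, were carried in a PA-tagged cDNA display construct, and were kept only if AlphaFold2 dimer inter-PAE exceeded 15.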

[2] = folding stability dG unfold (combined trypsin and chymotrypsin); higher = more stable
Procedure, shortened: as §1

[3] = folding stability dG unfold from trypsin proteolysis; higher = more stable
Procedure, shortened: as §1

| Sequence | folding stability dG unfold [1] [kcal/mol] | folding stability dG unfold [2] [kcal/mol] | folding stability dG unfold [3] [kcal/mol] |
| --- | --- | --- | --- |
| SAGGSAGGSAGKKITIPNLDVMRNPDDGMAFIQFGGQMIMIPPNVKIEQDPNGWMEIELPSAGGSAGGSAGG [r17_34_TrROS] | -0.845 ± 0.69 | 0.144 ± 0.12 | 0.625 ± 0.064 |
| SAGGSAGGSAGGSTPSFTPVLELEFEFENDVVVRVRLYRLPDEDTYLLEVEVAPDSLKDSAGGSAGGSAGGS [r4_163_TrMRF] | 4.11 ± 0.1 | 3.62 ± 0.13 | 2.88 ± 0.093 |
| SAGGSAMPDMTAEELAAEVAKKLPPGEKVLIKIRNKNGETKTFELGEDISDLPADEVTEIEIEVLPSAGGSA [r15_50_TrROS_Hall] | 1.05 ± 0.036 | 0.781 ± 0.054 | 0.248 ± 0.073 |
| SMKVTVTVERLPDGRGRITITINDSTLEIEVPPGLDPEELRAFAEETAKEIEEKLKEEGNPVTIEEITLSSA [r9_751_JUSTAS] | 1.61 ± 0.14 | 2.15 ± 0.24 | 2.58 ± 0.14 |
| SAGGSAGGSAGGMYRVEIETKGNKKVYIFPNLSPEELAKFLEDPKVVSYKVEKLSPEELESAGGSAGGSAGG [r7_502_JUSTAS] | 2.34 ± 0.094 | 2.27 ± 0.08 | 2.04 ± 0.077 |
| SAGGSAGGSAGGDERVEVFEFDAPGGYRVRLVDFGDLALVAFISPDGRPAVIPVPRELLSAGGSAGGSAGGS [r10_1075_TrMRF] | 1.87 ± 0.035 | 1.41 ± 0.044 | 0.529 ± 0.041 |
| SAGGSAGGSAGGMEISEKLREYIEKLGKKVSEEEALAIAEEKAKELKEKGIEDVTIVLPVSAGGSAGGSAGG [r7_512_JUSTAS] | 0.374 ± 0.072 | 0.399 ± 0.17 | -0.0343 ± 0.1 |
| SAGGSAGGSAGGMKIKTITGDPSTGVYTITFPDGKVETIPMTQEEVEALAKENPGIEITLSAGGSAGGSAGG [r7_175_JUSTAS] | 2.81 ± 0.049 | 2.46 ± 0.097 | 0.899 ± 0.035 |
| SAGMKIEVKRLPGPGDYLFTLVDPELAARLKAVYPGLEEVIFPVGGPDSVPEEEIKERAEKELKELLLSAGG [r19_298_JUSTAS] | -0.66 ± 0.64 | -0.268 ± 0.31 | -0.0847 ± 0.17 |
| SAGGSAGGSAGGKKIHLFMPKEVAEKFAKELEKLGIDSKEVEIEFHEVDIPPSLPPELKSAGGSAGGSAGGS [r10_602_TrMRF] | -0.594 ± 0.48 | -0.0833 ± 0.27 | -0.0238 ± 0.15 |
| SAGGSAGGMLEIEFEKPLPNGETLKIKVFFDKDKPEALVEIENPSTNEKKFYNFTSIDEVIEKESAGGSAGG [r6_464_TrMRF] | 1.7 ± 0.2 | 1.49 ± 0.24 | 1.03 ± 0.048 |
| SAMRILIEFDSPEEAEEALRKLVEEAGLVLEEIKVEIAPAKVTTTTPDGKKVTKTKYFALAEIKLSKKESAG [r14_773_TrMRF] | 2.19 ± 0.086 | 2.12 ± 0.19 | 1.47 ± 0.067 |
| SAGGSAGGSASEIMDEFPNLEIDNVNPDHGMMIIKWPDGWYWRVNVGNGEIEPVSPEDLEDMSAGGSAGGSA [r18_381_TrROS] | 0.983 ± 0.083 | 0.828 ± 0.18 | 0.447 ± 0.037 |
| SAEVELKPDEELEFEFPDSQVKISYVPGTGVITTTTTFTTPDGTVVYKTTTIKKEGKEVTSTTVSLAEASSA [r9_881_JUSTAS] | 1.52 ± 0.067 | 1.17 ± 0.12 | 0.389 ± 0.054 |
| SAGGSVPERAKVVTLVLRFEEPESLGIPLLERLLRELGFPDAVLGEVRIEPLPDGSVVAVVPLLVPSAGGSA [r2_346_TrMRF] | 3.196 ± 0.02 | 2.91 ± 0.059 | 2.42 ± 0.041 |
| SAGMLSVEQLLEALKEGKEILIVAESPEERERAKRLLAEELGLSEEEIDALLKKAKIKVLPADDPELKKSAG [r5_368_TrROS_Hall] | 2.72 ± 0.16 | 2.46 ± 0.2 | 1.35 ± 0.086 |
| SAGGSKERTYRVLIRNPDGELEEIEVSEEELEALLSLPPSATVRIVTEDGEEKTVTINVEKVELKESAGGSA [r2_222_TrROS_Hall] | 3.48 ± 0.067 | 3.07 ± 0.17 | 1.74 ± 0.11 |

— the supplement of paper PMC12764529
